Source: patent publication US20110059082A1

Tests used:
[1] = target: complement factor C1q (purified recombinant C1q) (UniProt P02745); test: flow cytometry, C1q binding to antibody-coated PBMCs, FITC anti-C1q; antibody 18.8 µg/ml
[2] = target: complement factor C1q (purified recombinant C1q) (UniProt P02745); test: flow cytometry, C1q binding to antibody-coated PBMCs, FITC anti-C1q; antibody 37.5 µg/ml
[3] = target: complement factor C1q (purified recombinant C1q) (UniProt P02745); test: flow cytometry, C1q binding to antibody-coated PBMCs, FITC anti-C1q; antibody 4.7 µg/ml
[4] = target: complement factor C1q (purified recombinant C1q) (UniProt P02745); test: flow cytometry, C1q binding to antibody-coated PBMCs, FITC anti-C1q; antibody 2.3 µg/ml
[5] = target: complement factor C1q (purified recombinant C1q) (UniProt P02745); test: flow cytometry, C1q binding to antibody-coated PBMCs, FITC anti-C1q; antibody 9.4 µg/ml
[6] = target: complement factor C1q (purified recombinant C1q) (UniProt P02745); test: flow cytometry, C1q binding to antibody-coated PBMCs, FITC anti-C1q; antibody 150 µg/ml
[7] = target: complement factor C1q (purified recombinant C1q) (UniProt P02745); test: flow cytometry, C1q binding to antibody-coated PBMCs, FITC anti-C1q; antibody 1.2 µg/ml
[8] = target: complement factor C1q (purified recombinant C1q) (UniProt P02745); test: flow cytometry, C1q binding to antibody-coated PBMCs, FITC anti-C1q; antibody 75.0 µg/ml

Sequence of complement factor C1q (purified recombinant C1q) (P02745 23-245, chain 1 of 3): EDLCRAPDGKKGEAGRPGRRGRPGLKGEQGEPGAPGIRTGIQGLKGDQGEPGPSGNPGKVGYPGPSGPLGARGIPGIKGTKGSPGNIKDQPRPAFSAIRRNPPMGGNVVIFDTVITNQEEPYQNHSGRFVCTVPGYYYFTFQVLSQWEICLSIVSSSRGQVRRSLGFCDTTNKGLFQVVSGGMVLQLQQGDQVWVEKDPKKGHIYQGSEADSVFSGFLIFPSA
Sequence of complement factor C1q (purified recombinant C1q) (P02746 28-253, chain 2 of 3, further chain): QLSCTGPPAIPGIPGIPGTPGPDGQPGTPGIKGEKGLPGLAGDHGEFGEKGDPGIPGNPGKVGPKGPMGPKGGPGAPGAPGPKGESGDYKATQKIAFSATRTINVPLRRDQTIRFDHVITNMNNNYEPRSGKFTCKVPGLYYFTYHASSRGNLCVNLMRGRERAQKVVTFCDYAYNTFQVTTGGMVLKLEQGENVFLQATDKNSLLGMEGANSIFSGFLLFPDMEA
Sequence of complement factor C1q (purified recombinant C1q) (P02747 29-245, chain 3 of 3, further chain): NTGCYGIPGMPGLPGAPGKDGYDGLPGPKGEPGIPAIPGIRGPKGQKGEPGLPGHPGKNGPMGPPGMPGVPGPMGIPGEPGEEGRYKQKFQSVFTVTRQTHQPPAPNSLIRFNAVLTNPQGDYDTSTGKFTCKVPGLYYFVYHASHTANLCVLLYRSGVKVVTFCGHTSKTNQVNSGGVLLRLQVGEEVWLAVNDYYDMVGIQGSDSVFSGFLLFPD

Substance | Mean fluorescence intensity [1] [MFI] | Mean fluorescence intensity [2] [MFI] | Mean fluorescence intensity [3] [MFI] | Mean fluorescence intensity [4] [MFI] | Mean fluorescence intensity [5] [MFI] | Mean fluorescence intensity [6] [MFI] | Mean fluorescence intensity [7] [MFI] | Mean fluorescence intensity [8] [MFI]
ATG (Tecelac) (antibody) | 672 | 732 | 491 | 371 | 541 | 782 | 302 | 766
humanized B-F5 H37L/L4M IgG1 (BT061) (antibody) | 217 | 205 | 198 | 199 | 210 | 199 | 193 | 200
